{"source": "the RNAGym collection of RNA variant scans (doi:10.1093/molbev/msab373)", "parents": {"B1": {"name": "Azoarcus group I ribozyme (parent)", "chain": "GUGCCUUGCGCCGGGAAACCACGCAAGGGAUGGUGUCAAAUUCGGCGAAACCUAAGCGCCCGCCCGGGCGUAUGGCAACGCCGAGCCAAGCUUCGGCGCCUGCGCCGAUGAAGGUGUAGAGACUAGACGGCACCCACCUAAGGCAAACGCUAUGGUGAAGGCAUAGUCCAGGGAGUGGCGAAAGUCACACAAACCGG"}}}
{"variants_of": "B1", "assay": "reverse-splicing fitness (ratio to wild type); higher = more active; in vitro selection; Mg2+ level not given", "summary_of_the_method": "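An in vitro group I ribozyme library with randomized positions was T7-transcribed and gel-purified. In triplicate, 10 pmol RNA in EPPS pH 7.5 was reacted with 50 pmoles of a 30-nt RNA substrate for 1 h at 37 °C across several added MgCl2 levels (1–48 mM), then stopped with EDTA. Products were reverse transcribed from a substrate-complementary primer, PCR-amplified and sequenced (HiSeq 4000). Fitness is a variant's read proportion after selection over that before, normalised to wild type.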"}
{"variant": "C82U A111U A145G C150U U176G", "reverse-splicing fitness": 0.0188}
{"variant": "C82U A111U A120U A145U C150G C169G U176G", "reverse-splicing fitness": 0.00209}
{"variant": "C82U A111U A120U A145U C150G C169G U176C", "reverse-splicing fitness": 0.00288}
{"variant": "C82U A111U A120U A145U C150G C169G U176A", "reverse-splicing fitness": 0.0029}
{"variant": "C82U A111U A145U C150G", "reverse-splicing fitness": 0.028}
{"variant": "C82U A111U A145U C150A", "reverse-splicing fitness": 0.0273}
{"variant": "C82U A111U A145U C150A C169A", "reverse-splicing fitness": 0.0089}
{"variant": "C82U A111U A145U C150A C169G", "reverse-splicing fitness": 0.00727}
{"variant": "C82U A111U A145U C150A C169U", "reverse-splicing fitness": 0.0106}
{"variant": "C82U A111U A120U A145U C150A C169G U176A", "reverse-splicing fitness": 0.00311}
{"variant": "C82U A111U A120U A145U C150A C169G U176G", "reverse-splicing fitness": 0.00192}
{"variant": "C82U A111U A120U A145U C150A C169G U176C", "reverse-splicing fitness": 0.00231}
{"variant": "C82U A111U A145G U176G", "reverse-splicing fitness": 0.0229}
{"variant": "C82U A111U A145G U176A", "reverse-splicing fitness": 0.107}
{"variant": "C82U A111U A145G U176C", "reverse-splicing fitness": 0.159}
{"variant": "C82U A111U A120U A145U C150A", "reverse-splicing fitness": 0.00625}
{"variant": "C82U A111U A120U A145U C150U", "reverse-splicing fitness": 0.0175}
{"variant": "C82U A111U A120U A145U C150G", "reverse-splicing fitness": 0.00727}
{"variant": "C82U A111U A120U C150A U176C", "reverse-splicing fitness": 0.00596}
{"variant": "C82U A111U A120U C150A U176A", "reverse-splicing fitness": 0.00551}
{"variant": "C82U A111U A120U C150A U176G", "reverse-splicing fitness": 0.00299}
{"variant": "C82U A111U A145U C150A U176C", "reverse-splicing fitness": 0.022}
{"variant": "C82U A111U A145U C150A U176G", "reverse-splicing fitness": 0.00782}
{"variant": "C82U A111U A145U C150A U176A", "reverse-splicing fitness": 0.0154}
{"variant": "C82U A111U A120U A145U C150A C169G", "reverse-splicing fitness": 0.00254}
{"variant": "C82U A111U A120U A145U C150A C169U", "reverse-splicing fitness": 0.00279}
{"variant": "C82U A111U A120U A145U C150A C169A", "reverse-splicing fitness": 0.00215}
{"variant": "C82U A111U A145C C150U C169A U176A", "reverse-splicing fitness": 0.0108}
{"variant": "C82U A111U A145C C150U C169A U176C", "reverse-splicing fitness": 0.00663}
{"variant": "C82U A111U A145C C150U C169A U176G", "reverse-splicing fitness": 0.00651}
{"variant": "C82U A111U A120U A145G C169U", "reverse-splicing fitness": 0.00389}
{"variant": "C82U A111U A120U A145G C169A", "reverse-splicing fitness": 0.0029}
{"variant": "C82U A111U A120U A145G C169G", "reverse-splicing fitness": 0.00363}
{"variant": "C82U A111U A120U A145G C150G C169A U176G", "reverse-splicing fitness": 0.00474}
{"variant": "C82U A111U A120U A145G C150G C169A U176A", "reverse-splicing fitness": 0.0098}
{"variant": "C82U A111U A120U A145G C150G C169A U176C", "reverse-splicing fitness": 0.00711}
{"variant": "C82U A111U A145G C150U C169U U176G", "reverse-splicing fitness": 0.00571}
{"variant": "C82U A111U A145G C150U C169U U176A", "reverse-splicing fitness": 0.0149}
{"variant": "C82U A111U A145G C150U C169U U176C", "reverse-splicing fitness": 0.013}
{"variant": "C82U A111U A120U A145G C150G", "reverse-splicing fitness": 0.00817}
{"variant": "C82U A111U A120U A145G C150U", "reverse-splicing fitness": 0.022}
{"variant": "C82U A111U A120U A145G C169A U176G", "reverse-splicing fitness": 0.00171}
{"variant": "C82U A111U A120U A145G C169A U176A", "reverse-splicing fitness": 0.00289}
{"variant": "C82U A111U A120U A145G C169A U176C", "reverse-splicing fitness": 0.00291}
{"variant": "C82U A111U A145C C150G U176C", "reverse-splicing fitness": 0.0175}
{"variant": "C82U A111U A145C C150G U176G", "reverse-splicing fitness": 0.00423}
{"variant": "C82U A111U A145C C150G U176A", "reverse-splicing fitness": 0.00994}
{"variant": "C82U A111U A120U A145G C150U C169G U176G", "reverse-splicing fitness": 0.00243}
{"variant": "C82U A111U A120U A145G C150U C169G U176A", "reverse-splicing fitness": 0.00606}
{"variant": "C82U A111U A120U A145G C150U C169G U176C", "reverse-splicing fitness": 0.00383}
{"variant": "C82U A111U A145U", "reverse-splicing fitness": 0.329}
{"variant": "C82U A111U A145G", "reverse-splicing fitness": 0.332}
{"variant": "C82U A111U A145C", "reverse-splicing fitness": 0.295}
{"variant": "C82U A111U A120U A145G C150U C169U U176G", "reverse-splicing fitness": 0.00209}
{"variant": "C82U A111U A120U A145G C150U C169U U176C", "reverse-splicing fitness": 0.00399}
{"variant": "C82U A111U A120U A145G C150U C169U U176A", "reverse-splicing fitness": 0.00396}
{"variant": "C82U A111U A145G C150A U176C", "reverse-splicing fitness": 0.0426}
{"variant": "C82U A111U A145G C150A U176G", "reverse-splicing fitness": 0.00953}
{"variant": "C82U A111U A145G C150A U176A", "reverse-splicing fitness": 0.0215}
{"variant": "C82U A111U A120U C150A C169G U176A", "reverse-splicing fitness": 0.00758}
{"variant": "C82U A111U A120U C150A C169G U176G", "reverse-splicing fitness": 0.0026}
{"variant": "C82U A111U A120U C150A C169G U176C", "reverse-splicing fitness": 0.00448}
{"variant": "C82U A111U A120U A145U C150A U176G", "reverse-splicing fitness": 0.00252}
{"variant": "C82U A111U A120U A145U C150A U176C", "reverse-splicing fitness": 0.00477}
{"variant": "C82U A111U A120U A145U C150A U176A", "reverse-splicing fitness": 0.00357}
{"variant": "C82U A111U A120U C169G", "reverse-splicing fitness": 0.00397}
{"variant": "C82U A111U A120U C169A", "reverse-splicing fitness": 0.00267}
{"variant": "C82U A111U A120U C169U", "reverse-splicing fitness": 0.00477}
{"variant": "C82U A111U A120U C150G C169U U176C", "reverse-splicing fitness": 0.00377}
{"variant": "C82U A111U A120U C150G C169U U176A", "reverse-splicing fitness": 0.00294}
{"variant": "C82U A111U A120U C150G C169U U176G", "reverse-splicing fitness": 0.00264}
{"variant": "C82U A111U A145G C150G C169G", "reverse-splicing fitness": 0.00754}
{"variant": "C82U A111U A145G C150G C169A", "reverse-splicing fitness": 0.00815}
{"variant": "C82U A111U A145G C150G C169U", "reverse-splicing fitness": 0.00863}
{"variant": "C82U A111U A145G C169U", "reverse-splicing fitness": 0.0114}
{"variant": "C82U A111U A145G C169A", "reverse-splicing fitness": 0.00999}
{"variant": "C82U A111U A145G C169G", "reverse-splicing fitness": 0.00856}
{"variant": "C82U A111U A145G C150A", "reverse-splicing fitness": 0.0405}
{"variant": "C82U A111U A145G C150G", "reverse-splicing fitness": 0.0326}
{"variant": "C82U A111U A145G C150U", "reverse-splicing fitness": 0.235}
{"variant": "C82U A111U A145G C150G C169A U176A", "reverse-splicing fitness": 0.0125}
{"variant": "C82U A111U A145G C150G C169A U176C", "reverse-splicing fitness": 0.0112}
{"variant": "C82U A111U A145G C150G C169A U176G", "reverse-splicing fitness": 0.0074}
{"variant": "C82U A111U A120U A145U", "reverse-splicing fitness": 0.0252}
